Laboratory results reported in patent US20220073604A1 (ARGENX BVBA, published 2022).

Legend:
[1] = biological target: T1, bacterially produced human IL-6 (human, UniProt P05231 30-212); experiment: SPR; purified Fab over biotinylated IL-6 on streptavidin chip
T1 construct: also called bactIL-6; prokaryotic IL-6
Description: From the washing phase the off-rate (kd) was determined, while from the injection phase the on-rate (ka) was calculated using the concentration and off-rate as parameters.

[2] = biological target: T2, eukaryotically produced human IL-6 (human, UniProt P05231 30-212); experiment: SPR (Biacore), periplasmic Fab
T2 construct: Immobilised on the Biacore chip; also called Euk IL-6; EUK IL-6 (3-1)

cynomolgus monkey IL-6 = biological target: T3, cynomolgus monkey IL-6 (cynomolgus monkey, UniProt P79341 28-212, limits assumed); experiment: SPR (Biacore), periplasmic Fab
T3 construct: Immobilised on the Biacore chip

[3] = biological target: T4, bacterially produced human IL-6 (human, UniProt P05231 30-212); experiment: SPR (Biacore), periplasmic Fab
T4 construct: Immobilised on the Biacore chip; also called BACT IL-6 (2-1); bactIL-6

[4] = biological target: human IL-6 (as added in the B9 and 7TD1 bioassays) (human, UniProt P05231 30-212); experiment: cell-based or functional assay

B1: Fab 28C6 (Fab, V domains shown)
VH: QVQLVESGGGLVQPGGSLRLSCAASGFTFSNYYMTWVRQAPGKGLEWVSSIYSFSGDTAYADSVKGRFTISRDNAKNTLYLQMNKLKSEDTAVYYCTRDLGGVVVTANGYDYWGQGTQVTVSS
VL: DIVMTQTPSSLSASLGDRVTITCQASQSISTELSWYQQKPGQTPKLLIYGASRLQTGVPARFSGSGSGTSFTLTISGLEAEDLATYYCLQDYSWPYSFGSGTRL
notes: Fab
Ka [1]: 4.04e+07 M⁻¹ | Kd [1]: 24800 pM | koff [1]: 0.0025 s⁻¹ | kon [1]: 101000 M⁻¹ s⁻¹

B2: 55E10 (Fab, V domains shown)
VH: QVQLVESGGGLVQPGGSLRLSCAASGFTFSNYYMTWVRQAPGKGLEWVSSIYSFSGDTAYADSVKGRFTISRDNAKNTLYLQMNSLKSEDTAVYYCTRNLGGVVVTTNGYDYWGQGTQVTVSS
VL: DIQMTQSPSSLPTSLGDSVTITCQASQSISDELSWYQQKPGQTPKLLIYGASKLQTGVPSRFSGSGSGTSFTLTISGLEAEDLATYYCLQGYSWPFMFGQGTKVELK
notes: Periplasmic Fab; Suffix 'g1' not explained; also called 55E10g1
Ka [2]: 2.62e+09 M⁻¹ | Kd [2]: 382 pM | fold improvement of KD over 28A6 (parental) [2]: 1.52 fold | fold improvement of ka over 28A6 (parental) [2]: 0.8 fold | fold improvement of kd over 28A6 (parental) [2]: 1.88 fold | koff [2]: 5.59e-05 s⁻¹ | kon [2]: 146000 M⁻¹ s⁻¹ | Ka (cynomolgus monkey IL-6): 2.1e+09 M⁻¹ | Kd (cynomolgus monkey IL-6): 476 pM | fold improvement of KD over 28A6 (parental) (cynomolgus monkey IL-6): 11 fold | fold improvement of ka over 28A6 (parental) (cynomolgus monkey IL-6): 1.13 fold | fold improvement of kd over 28A6 (parental) (cynomolgus monkey IL-6): 9.78 fold | koff (cynomolgus monkey IL-6): 6.88e-05 s⁻¹ | kon (cynomolgus monkey IL-6): 145000 M⁻¹ s⁻¹ | Ka [3]: 3.18e+09 M⁻¹ | Kd [3]: 315 pM | fold improvement of KD over 28A6 (parental) [3]: 2.38 fold | fold improvement of ka over 28A6 (parental) [3]: 0.81 fold | fold improvement of kd over 28A6 (parental) [3]: 2.92 fold | koff [3]: 6.09e-05 s⁻¹ | kon [3]: 193000 M⁻¹ s⁻¹

B3: 48H1 (Fab, V domains shown)
VH: QVQLVESGGGLVQPGGSLRLSCAASGFTFSNYYMTWVRQAPGKGLEWVSSIYSFSGDTAYADSVKGRFTISRDNAKNTLYLQMNSLKSEDTAVYYCTRNLGGVVVTTNGYDYWGQGTQVTVSS
VL: DVVMTQSPSSLPTSLGDSVTITCQASQSISDELSWYQQKPGQTPKLLIYGASKLQTGVPSRFSGSGSGTSFTLTISGLEAEDLATYYCLQGYSWPFMFGQGTKVELK
notes: Periplasmic Fab; Suffix 'g2, R4' not explained; also called 48H1g2, R4
Ka [2]: 1.56e+09 M⁻¹ | Kd [2]: 640 pM | fold improvement of KD over 28A6 (parental) [2]: 0.91 fold | fold improvement of ka over 28A6 (parental) [2]: 0.58 fold | fold improvement of kd over 28A6 (parental) [2]: 1.54 fold | koff [2]: 6.8e-05 s⁻¹ | kon [2]: 106000 M⁻¹ s⁻¹ | Ka (cynomolgus monkey IL-6): 1.18e+09 M⁻¹ | Kd (cynomolgus monkey IL-6): 845 pM | fold improvement of KD over 28A6 (parental) (cynomolgus monkey IL-6): 6.21 fold | fold improvement of ka over 28A6 (parental) (cynomolgus monkey IL-6): 0.88 fold | fold improvement of kd over 28A6 (parental) (cynomolgus monkey IL-6): 7.11 fold | koff (cynomolgus monkey IL-6): 9.46e-05 s⁻¹ | kon (cynomolgus monkey IL-6): 112000 M⁻¹ s⁻¹ | Ka [3]: 2.93e+09 M⁻¹ | Kd [3]: 341 pM | fold improvement of KD over 28A6 (parental) [3]: 2.2 fold | fold improvement of ka over 28A6 (parental) [3]: 0.87 fold | fold improvement of kd over 28A6 (parental) [3]: 2.53 fold | koff [3]: 7.04e-05 s⁻¹ | kon [3]: 206000 M⁻¹ s⁻¹

B4: 129F2 (germlined variant of 68F2), full-length IgG1 (antibody, V domains shown)
VH: EVQLQESGPGLVKPSQTLSLTCTVSGGSITSRYYAWSWIRQPPGKGLEWIGVIDYDGDTYYSPSLKSRVTISWDTSKNQFSLKLSSVTAEDTAVYYCARDPDVVTGFHYDYWGQGTMVTVSS
VL: QSALTQPPSVSGTPGQTVTISCAGANNDIGTYAYVSWYQQLPGTAPKLMIYKVTTRASGIPDRFSGSKSGNTASLTISGLQSEDEADYYCASYRNFNNAVFGGGTKLTVL
IC50, 7TD1 proliferation assay, exp 22.06 [4]: 0.703 pM | IC50, 7TD1 proliferation assay, exp 29.06 [4]: 0.517 pM | Rel. Potency, 7TD1, exp 29.06 [4]: 1.08

B5: 127E2 (germlined variant of 68F2), full-length IgG1 (antibody, V domains shown)
VH: EVQLQESGPGLVKPSQTLSLTCTVSGGSITTRYYAWSWIRQPPGKGLEWIGVIDYDGDTYYSPSLKSRVTISVDTSKNQFSLQLSSVTAEDTAVYYCARDPDVVTGFHYDYWGQGTQVTVSS
VL: QSALTQPPSVSGSPGQTVTISCAGANNDIGTYAYVSWYQQPPGTAPKLLIYKVTTRASGVPDRFSGSKSGNTASLTISGLQAEDEADYYCASYRNFNNAVFGGGTHLTVL
IC50, 7TD1 proliferation assay, exp 22.06 (batch 24.06) [4]: 1.38 pM | IC50, 7TD1 proliferation assay, exp 29.06 (batch 17.06) [4]: 1.51 pM | IC50, 7TD1 proliferation assay, exp 29.06 (batch 24.06) [4]: 1.25 pM | Rel. Potency, 7TD1, exp 29.06 (batch 24.06) [4]: 0.45

B6: 126A3 (germlined variant of 68F2), full-length IgG1 (antibody, V domains shown)
VH: EVQLQESGPGLVKPSQTLSLTCTVSGGSITTRYYAWSWIRQPPGKGLEWIGVIDYDGDTYYSPSLKSRVTISVDTSKNQFSLKLSSVTAADTAVYYCARDPDVVTGFHYDYWGQGTMVTVSS
VL: QSALTQPPSVSGAPGQTVTISCAGANNDIGTYAYVSWYQQLPGTAPKLLIYKVTTRASGIPSRFSGSKSGNTASLTITGLQSEDEADYYCASYRNFNNAVFGRGTKLTVL
IC50, 7TD1 proliferation assay, exp 7.07 [4]: 0.63 pM | IC50, 7TD1 proliferation assay, exp 29.06 [4]: 0.564 pM | Rel. Potency, 7TD1, exp 7.07 [4]: 2.16 | Rel. Potency, 7TD1, exp 29.06 [4]: 0.99

B7: 129E11 (germlined variant of 68F2), full-length IgG1 (antibody, V domains shown)
VH: EVQLQESGPGLVKPSQTLSLTCTVSGGSITSRYYAWSWIRQPPGKGLEWMGVIDYDGDTYYSPSLKSRVTISVDTSKNQFSLKLSSVTAEDTAVYYCARDPDVVTGFHYDYWGQGTLVTVSS
VL: QSALTQPPLVSGSPGQTVTISCAGANNDIGTYAYVSWYQQLPGTAPKLLIYKVTTRASGVPDRFSGSKSGNTASLTISGLQSEDEADYYCASYRNFNNAVFGTGTKLTVL
IC50, 7TD1 proliferation assay, exp 7.07 [4]: 1.55 pM | IC50, 7TD1 proliferation assay, exp 29.06 [4]: 0.857 pM | Rel. Potency, 7TD1, exp 7.07 [4]: 0.88 | Rel. Potency, 7TD1, exp 29.06 [4]: 0.65

B8: 127F1 (germlined variant of 68F2), full-length IgG1 (antibody, V domains shown)
VH: EVQLQESGPGLVKPSQTLSLTCTVSGGSITTRYYAWSWIRQPPGKGLEWIGVIDYDGDTYYSPSLKSRVSISWDTSKNQFSLKLSSVTAADTAVYYCARDPDVVTGFHYDYWGQGTLVTVSS
VL: QSVLTQPPSVSGTPGQRVTISCAGANNDIGTYAYVSWYQQLPGTAPKLLIYKVTTRASGVPDRFSGSKSGNSASLTITGLQSEDEADYYCASYRNFNNAVFGGGTHLTVL
IC50, 7TD1 proliferation assay, exp 7.07 [4]: 1.49 pM | IC50, 7TD1 proliferation assay, exp 29.06 [4]: 0.637 pM | Rel. Potency, 7TD1, exp 7.07 [4]: 0.91 | Rel. Potency, 7TD1, exp 29.06 [4]: 0.88

B9: 128G3 (germlined variant of 68F2), full-length IgG1 (antibody, V domains shown)
VH: EVQLQESGPGLVKPSQTLSLTCTVSGGSITTRYYAWSWIRQPPGKGLEWIGVIDYDGDTYYSPSLKSRTTISVDTSKNQFSLKLSSVTPEDTAVYYCARDPDVVTGFHYDYWGQGTMVTVSS
VL: QSALTQPPSVSGAPGQTVTISCAGANNDIGTYAYVSWYQQLPGTAPKLLIYKVTTRASGVPDRFSGSKSGNTASLAISGLQAEDEADYYCASYRNFNNAVFGGGTHLTVL
IC50, 7TD1 proliferation assay, exp 22.06 (batch 17.06) [4]: 1.34 pM | IC50, 7TD1 proliferation assay, exp 29.06 (batch 17.06) [4]: 1.07 pM | IC50, 7TD1 proliferation assay, exp 29.06 (batch 24.06) [4]: 1.46 pM | Rel. Potency, 7TD1, exp 29.06 (batch 24.06) [4]: 0.38

B10: Fab 18F8 (Fab, V domains shown)
VH: EVQLVESGGGLVQPGGSLRLSCAASGFTFSRNAMSWVRQAPGKGLEWVSAINSGGGSTSYADSVKGRFTISRDNAKNTLYLQMNSLKPEDTAVYYCAKEGYTGWKDPMYDYWGQGTQVTVSS
VL: QSALTQPSALSVTLGQTAKITCQGGSLGSRYAHWYQQKPGQAPVLVIYDDDSRPSGIPERFSGSSSGGRATLTISGAQAEDEGDYYCQSADTSEHIVFGGGTHLTVLG
notes: Fab
Ka [1]: 6.18e+07 M⁻¹ | Kd [1]: 16200 pM | koff [1]: 0.000784 s⁻¹ | kon [1]: 48400 M⁻¹ s⁻¹
